{
  "source": "patent US20220098269A1",
  "about": "(IMMATICS BIOTECHNOLOGIES, published 2022)",
  "assay_in_all_cases": "UV-ligand exchange, anti-b2m ELISA; peptide exchange yield grade",
  "key": {"HLA-B*44:05": {"molecular_target": "T1, HLA-B*44:05 (human)", "T1 construct": "Peptide-receptive MHC class I monomer after UV cleavage of a UV-sensitive ligand", "source_text": "(§1) Candidate peptides for T cell based therapies according to the present invention were further tested for their MHC binding capacity (affinity). The individual peptide-MHC complexes were produced by UV-ligand exchange, where a UV-sensitive peptide is cleaved upon UV-irradiation and exchanged with the peptide of interest as analyzed. Only peptide candidates that can effectively bind and stabilize the peptide-receptive MHC molecules prevent dissociation of the MHC complexes. To determine the yield of the exchange reaction, an ELISA was performed based on the detection of the light chain (β2m) of stabilized MHC complexes. The assay was performed as generally described in Rodenko et al. (Rodenko et al., 2006).\n(§2) 96 well MAXISorp plates (NUNC) were coated over night with 2 μg/ml streptavidin in PBS at room temperature, washed 4× and blocked for 1h at 37° C. in 2% BSA containing blocking buffer. Refolded HLA-A*02:01/MLA-001 monomers served as standards, covering the range of 15-500 ng/ml. Peptide-MHC monomers of the UV-exchange reaction were diluted 100-fold in blocking buffer. Samples were incubated for 1 h at 37° C., washed four times, incubated with 2 μg/ml HRP conjugated anti-β2m for 1h at 37° C., washed again and detected with TMB solution that is stopped with […]. Absorption was measured at 450 nm. Candidate peptides that show a high exchange yield (preferably higher than 50%, most preferred higher than 75%) are generally preferred for a generation and production of antibodies or fragments thereof, and/or T cell receptors or fragments thereof, as they show sufficient avidity to the MHC molecules and prevent dissociation of the MHC complexes."}, "HLA-A*02:01": {"molecular_target": "T2, HLA-A*02:01 (human)", "T2 construct": "Peptide-receptive MHC class I monomer after UV cleavage of a UV-sensitive ligand", "source_text": "as §1, §2"}, "HLA-A*03:01": {"molecular_target": "T3, HLA-A*03:01 (human)", "T3 construct": "Peptide-receptive MHC class I monomer after UV cleavage of a UV-sensitive ligand", "source_text": "as §1, §2"}, "HLA-A*24:02": {"molecular_target": "T4, HLA-A*24:02 (human)", "T4 construct": "Peptide-receptive MHC class I monomer after UV cleavage of a UV-sensitive ligand", "source_text": "as §1, §2"}, "HLA-B*07:02": {"molecular_target": "T5, HLA-B*07:02 (human)", "T5 construct": "Peptide-receptive MHC class I monomer after UV cleavage of a UV-sensitive ligand", "source_text": "as §1, §2"}, "HLA-B*08:01": {"molecular_target": "T6, HLA-B*08:01 (human)", "T6 construct": "Peptide-receptive MHC class I monomer after UV cleavage of a UV-sensitive ligand", "source_text": "as §1, §2"}},
  "data": [
    {"binder": "KENQDHSYSL", "values": [
      {"measurement": "peptide exchange yield", "setting": "HLA-B*44:05", "result": "≥ 75", "unit": "%"}
    ]},
    {"binder": "KEVDDTLLVNEL", "values": [
      {"measurement": "peptide exchange yield", "setting": "HLA-B*44:05", "result": "≥ 75", "unit": "%"}
    ]},
    {"binder": "DESKYTWSW", "values": [
      {"measurement": "peptide exchange yield", "setting": "HLA-B*44:05", "result": "≥ 75", "unit": "%"}
    ]},
    {"binder": "LENMYDLTF", "values": [
      {"measurement": "peptide exchange yield", "setting": "HLA-B*44:05", "result": "≥ 75", "unit": "%"}
    ]},
    {"binder": "QEVDISLHY", "values": [
      {"measurement": "peptide exchange yield", "setting": "HLA-B*44:05", "result": "≥ 75", "unit": "%"}
    ]},
    {"binder": "KPREEQYDSTY", "values": [
      {"measurement": "peptide exchange yield", "setting": "HLA-B*44:05", "result": "≥ 75", "unit": "%"}
    ]},
    {"binder": "DETIWYVRF", "values": [
      {"measurement": "peptide exchange yield", "setting": "HLA-B*44:05", "result": "≥ 75", "unit": "%"}
    ]},
    {"binder": "DETHTLQF", "values": [
      {"measurement": "peptide exchange yield", "setting": "HLA-B*44:05", "result": "≥ 75", "unit": "%"}
    ]},
    {"binder": "DETAAYKIM", "values": [
      {"measurement": "peptide exchange yield", "setting": "HLA-B*44:05", "result": "50 to 75", "unit": "%"}
    ]},
    {"binder": "AESLAVHDI", "values": [
      {"measurement": "peptide exchange yield", "setting": "HLA-B*44:05", "result": "50 to 75", "unit": "%"}
    ]},
    {"binder": "GEYRCQTDL", "values": [
      {"measurement": "peptide exchange yield", "setting": "HLA-B*44:05", "result": "≥ 75", "unit": "%"}
    ]},
    {"binder": "AEFFDYTVRTL", "values": [
      {"measurement": "peptide exchange yield", "setting": "HLA-B*44:05", "result": "≥ 75", "unit": "%"}
    ]},
    {"binder": "TDFTKIASF", "values": [
      {"measurement": "peptide exchange yield", "setting": "HLA-B*44:05", "result": "≥ 75", "unit": "%"}
    ]},
    {"binder": "SLIDITHGF", "values": [
      {"measurement": "binding result", "setting": "HLA-A*02:01", "result": "binds"}
    ]},
    {"binder": "IVRDLSCRK", "values": [
      {"measurement": "peptide exchange yield", "setting": "HLA-A*03:01", "result": "50 to 75", "unit": "%"}
    ]},
    {"binder": "NLYDWSASY", "values": [
      {"measurement": "peptide exchange yield", "setting": "HLA-A*03:01", "result": "20 to 50", "unit": "%"}
    ]},
    {"binder": "RLWDFTMNAK", "values": [
      {"measurement": "peptide exchange yield", "setting": "HLA-A*03:01", "result": "50 to 75", "unit": "%"}
    ]},
    {"binder": "RLPAADFTRY", "values": [
      {"measurement": "peptide exchange yield", "setting": "HLA-A*03:01", "result": "20 to 50", "unit": "%"}
    ]},
    {"binder": "KAYDQTHLY", "values": [
      {"measurement": "peptide exchange yield", "setting": "HLA-A*03:01", "result": "≥ 75", "unit": "%"}
    ]},
    {"binder": "HLYYDVTEK", "values": [
      {"measurement": "peptide exchange yield", "setting": "HLA-A*03:01", "result": "50 to 75", "unit": "%"}
    ]},
    {"binder": "VYIDDSVEL", "values": [
      {"measurement": "peptide exchange yield", "setting": "HLA-A*24:02", "result": "≥ 75", "unit": "%"}
    ]},
    {"binder": "IFVPTDRSL", "values": [
      {"measurement": "peptide exchange yield", "setting": "HLA-A*24:02", "result": "20 to 50", "unit": "%"}
    ]},
    {"binder": "RYVNDYTNSF", "values": [
      {"measurement": "peptide exchange yield", "setting": "HLA-A*24:02", "result": "≥ 75", "unit": "%"}
    ]},
    {"binder": "AFDKTIVKL", "values": [
      {"measurement": "peptide exchange yield", "setting": "HLA-A*24:02", "result": "20 to 50", "unit": "%"}
    ]},
    {"binder": "VYVDTTELAL", "values": [
      {"measurement": "peptide exchange yield", "setting": "HLA-A*24:02", "result": "≥ 75", "unit": "%"}
    ]},
    {"binder": "EYQDFSTLF", "values": [
      {"measurement": "peptide exchange yield", "setting": "HLA-A*24:02", "result": "≥ 75", "unit": "%"}
    ]},
    {"binder": "VYLDASKVPGF", "values": [
      {"measurement": "peptide exchange yield", "setting": "HLA-A*24:02", "result": "≥ 75", "unit": "%"}
    ]},
    {"binder": "IYPDGTLLI", "values": [
      {"measurement": "peptide exchange yield", "setting": "HLA-A*24:02", "result": "≥ 75", "unit": "%"}
    ]},
    {"binder": "RQDESYLNF", "values": [
      {"measurement": "peptide exchange yield", "setting": "HLA-A*24:02", "result": "20 to 50", "unit": "%"}
    ]},
    {"binder": "HLFYDVTVF", "values": [
      {"measurement": "peptide exchange yield", "setting": "HLA-A*24:02", "result": "20 to 50", "unit": "%"}
    ]},
    {"binder": "APFKDVTEY", "values": [
      {"measurement": "peptide exchange yield", "setting": "HLA-B*07:02", "result": "50 to 75", "unit": "%"}
    ]},
    {"binder": "LPFFTDKTLSF", "values": [
      {"measurement": "peptide exchange yield", "setting": "HLA-B*07:02", "result": "≥ 75", "unit": "%"}
    ]},
    {"binder": "FPYYLKIDY", "values": [
      {"measurement": "peptide exchange yield", "setting": "HLA-B*07:02", "result": "50 to 75", "unit": "%"}
    ]},
    {"binder": "HPDLTSMTF", "values": [
      {"measurement": "peptide exchange yield", "setting": "HLA-B*07:02", "result": "≥ 75", "unit": "%"}
    ]},
    {"binder": "HPFGYDLTL", "values": [
      {"measurement": "peptide exchange yield", "setting": "HLA-B*07:02", "result": "≥ 75", "unit": "%"}
    ]},
    {"binder": "VPRNQDESV", "values": [
      {"measurement": "peptide exchange yield", "setting": "HLA-B*07:02", "result": "≥ 75", "unit": "%"}
    ]},
    {"binder": "NPADISVAL", "values": [
      {"measurement": "peptide exchange yield", "setting": "HLA-B*07:02", "result": "≥ 75", "unit": "%"}
    ]},
    {"binder": "SPKIFDSSW", "values": [
      {"measurement": "peptide exchange yield", "setting": "HLA-B*07:02", "result": "50 to 75", "unit": "%"}
    ]},
    {"binder": "GEPTSDITLL", "values": [
      {"measurement": "peptide exchange yield", "setting": "HLA-B*07:02", "result": "50 to 75", "unit": "%"}
    ]},
    {"binder": "DILDRTGHQL", "values": [
      {"measurement": "binding result", "setting": "HLA-B*08:01", "result": "binds"}
    ]},
    {"binder": "DVSDKITFM", "values": [
      {"measurement": "binding result", "setting": "HLA-B*08:01", "result": "binds"}
    ]},
    {"binder": "AQDTTYLWW", "values": [
      {"measurement": "peptide exchange yield", "setting": "HLA-B*44:05", "result": "≥ 75", "unit": "%"}
    ]},
    {"binder": "TEGDFTKEASTY", "values": [
      {"measurement": "peptide exchange yield", "setting": "HLA-B*44:05", "result": "50 to 75", "unit": "%"}
    ]},
    {"binder": "DEAVRDITW", "values": [
      {"measurement": "peptide exchange yield", "setting": "HLA-B*44:05", "result": "≥ 75", "unit": "%"}
    ]},
    {"binder": "RDATASLW", "values": [
      {"measurement": "peptide exchange yield", "setting": "HLA-B*44:05", "result": "≥ 75", "unit": "%"}
    ]},
    {"binder": "AERDLDVTI", "values": [
      {"measurement": "peptide exchange yield", "setting": "HLA-B*44:05", "result": "≥ 75", "unit": "%"}
    ]}
  ]
}
